Results on two substances are retold here after article PMC6145873.

Experiment [1] has as its target Thermus thermophilus PilF type IVa pilus assembly ATPase, full length (Thermus thermophilus HB8). In words: cryo-EM structure; single particle reconstructions of full length TtPilF as apoprotein and with 1 mM AMPPNP; ~200 μg/ml; 25 mM HEPES pH 7.5, 150 mM NaCl, 5 mM MgCl2, 5% glycerol; C2 symmetry applied.
Experiment [2] addresses TtPilFc, C-terminal tryptic fragment of Thermus thermophilus PilF (N2, CTD and Zn-binding domains) (Thermus thermophilus HB8). In words: crystal structure; TtPilFc with bound ATP/Mg2+, space group C2, 2.44 Å; crystals at 20 °C in 0.2 M sodium bromide, 0.1 M Bis-Tris propane pH 6.5, 20% PEG 3350.

The term stoichiometry N denotes the number of molecules, sites or subunits per partner or assembly.

In experiment [1], “Thermus thermophilus PilF type IVa pilus assembly ATPase, full length (enzyme)” displayed a stoichiometry N of 6.
On to “TtPilFc, C-terminal tryptic fragment of Thermus thermophilus PilF (N2, CTD and Zn-binding domains) (domain or fragment)”, for which the stoichiometry N in experiment [2] is 6.
